Molecular target: SLTI{pTyr}AQVQKA (Homo sapiens, UniProt Q13291)
Assay: Competitive ELISA, SH2D1B variants
Assay type: binding

B1: SH2D1B: SH2D1B SH2 domain, SEQ ID 67 (protein, listed as Homo sapiens)
chain: YYHGRLTKQDCETLLLKEGVDGNFLLRDSESIPGVLCLCVSFKNIVYTYRIFREKHGYYRIQTAEGSPKQVFPSLKELISKFEKPNQGMVVHLLKPI
Superbinding grafts or the αA-2-Arg substitution
  change in affinity: could not be improved further
With either the sSrc or sFes graft
  change in affinity: no improvement in affinity
